B3: CCT4, subunit of bovine TRiC/CCT (bTRiC) (natural protein, Bos taurus, UniProt Q2T9X2 1-542, looked up)
chain: MPENVAPRTGPPAGAAGAAGGRGKSAYQDRDKPAQIRFSNISAAKAVADAIRTSLGPKGMDKMIQDGKGDVTITNDGATILKQMQVLHPAARMLVELSKAQDIEAGDGTTSVVIIAGSLLDSCTKLLQKGIHPTIISESFQKALEKGIEILTDMSRPEELSDRETLLNSAATSLNSKVVSQYSSLLSPMSVDAVMKVIDPATATSVDLRDIKIVKKLGGTIDDCELVEGLVLTQKVANSGITRVEKAKIGLIQFCLSAPKTDMDNQIVVSDYVQMDRVLREERAYILNLVKQIKKTGCNVLLIQKSILRDALSDLALHFLNKMKIMVVKDIEREDIEFICKTIGTKPVAHVDQFTADMLGSAELAEEVSLNGSGKLIKITGCASPGKTVTIVVRGSNKLVIEEAERSIHDALCVIRCLVKKRALIAGGGAPEIELALRLTEYSRTLSGMESYCIRAFADAMEVIPSTLAENAGLNPISTVTELRNRHAQGEKTTGINVRKGGISNILEEQVVQPLLVSVSALTLATETVRSILKIDDVVNTR

Assays:
Assay in all cases: cross-linking
[1] = molecular target: T1, CCT8, subunit of bovine TRiC/CCT (bTRiC) (Bos taurus, UniProt Q3ZCI9 1-548)
T1 sequence (looked up): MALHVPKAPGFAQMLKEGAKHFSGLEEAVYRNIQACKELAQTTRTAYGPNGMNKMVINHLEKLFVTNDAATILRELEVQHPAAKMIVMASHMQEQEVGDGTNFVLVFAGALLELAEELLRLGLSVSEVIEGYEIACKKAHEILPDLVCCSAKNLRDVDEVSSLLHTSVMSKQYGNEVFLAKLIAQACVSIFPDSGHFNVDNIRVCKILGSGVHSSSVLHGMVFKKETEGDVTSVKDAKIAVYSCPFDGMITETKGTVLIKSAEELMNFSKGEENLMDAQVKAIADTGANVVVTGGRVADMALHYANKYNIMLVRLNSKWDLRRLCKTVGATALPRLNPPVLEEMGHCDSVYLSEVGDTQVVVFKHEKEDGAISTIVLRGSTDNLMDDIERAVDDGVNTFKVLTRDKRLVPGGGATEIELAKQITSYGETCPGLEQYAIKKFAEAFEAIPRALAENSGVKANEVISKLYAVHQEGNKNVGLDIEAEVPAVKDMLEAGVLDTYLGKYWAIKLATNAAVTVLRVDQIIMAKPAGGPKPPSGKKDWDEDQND

[2] = molecular target: B3
[3] = molecular target: CCT1, subunit of bovine TRiC/CCT (bTRiC) (Bos taurus, UniProt Q32L40 1-556)
Chain of CCT1, subunit of bovine TRiC/CCT (bTRiC) (Q32L40 whole entry): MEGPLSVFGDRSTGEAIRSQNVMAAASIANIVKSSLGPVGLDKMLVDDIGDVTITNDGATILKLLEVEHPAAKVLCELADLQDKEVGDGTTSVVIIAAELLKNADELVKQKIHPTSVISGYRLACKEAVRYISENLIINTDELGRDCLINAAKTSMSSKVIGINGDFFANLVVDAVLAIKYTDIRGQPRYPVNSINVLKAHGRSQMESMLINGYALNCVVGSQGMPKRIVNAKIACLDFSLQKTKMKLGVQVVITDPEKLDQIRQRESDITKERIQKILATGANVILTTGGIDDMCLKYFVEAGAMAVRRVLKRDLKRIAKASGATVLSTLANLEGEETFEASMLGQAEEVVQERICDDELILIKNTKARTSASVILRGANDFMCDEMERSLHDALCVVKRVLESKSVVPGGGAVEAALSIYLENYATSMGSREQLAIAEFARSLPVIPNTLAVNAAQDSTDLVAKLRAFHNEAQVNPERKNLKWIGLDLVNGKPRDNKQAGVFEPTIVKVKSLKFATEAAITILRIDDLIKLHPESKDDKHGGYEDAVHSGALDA

[4] = molecular target: CCT4, subunit of yeast TRiC/CCT (yTRiC) (Saccharomyces cerevisiae, UniProt P39078 1-528)
Chain of CCT4, subunit of yeast TRiC/CCT (yTRiC) (P39078 whole entry): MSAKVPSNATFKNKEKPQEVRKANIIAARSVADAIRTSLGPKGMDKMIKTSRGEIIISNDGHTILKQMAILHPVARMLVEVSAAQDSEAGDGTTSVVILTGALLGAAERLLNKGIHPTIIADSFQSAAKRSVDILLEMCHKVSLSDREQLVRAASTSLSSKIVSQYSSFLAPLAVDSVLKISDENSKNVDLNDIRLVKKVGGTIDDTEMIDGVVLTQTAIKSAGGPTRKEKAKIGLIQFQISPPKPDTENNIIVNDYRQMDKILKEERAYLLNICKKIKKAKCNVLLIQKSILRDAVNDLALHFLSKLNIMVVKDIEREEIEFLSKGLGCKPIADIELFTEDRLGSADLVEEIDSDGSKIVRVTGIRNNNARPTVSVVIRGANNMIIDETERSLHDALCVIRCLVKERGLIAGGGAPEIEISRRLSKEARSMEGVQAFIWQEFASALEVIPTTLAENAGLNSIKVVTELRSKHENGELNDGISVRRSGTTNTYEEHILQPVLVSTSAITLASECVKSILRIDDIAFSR

B1: CCT7, subunit of bovine TRiC/CCT (bTRiC) (natural protein, Bos taurus, UniProt Q2NKZ1 1-543, looked up)
chain: MMPTPVILLKEGTDSSQGIPQLVSNISACQVIAEAVRTTLGPRGMDKLIVDGRGKATISNDGATILKLLDVVHPAAKTLVDIAKSQDAEVGDGTTSVTLLAAEFLKQVKPYVEEGLHPQIIIRAFRTATQLAVNKIKEIAVTVKKEDKVEQRKLLEKCAMTALSSKLISQQKAFFAKMVVDAVMMLDDLLQLKMIGIKKVQGGALEESQLVAGVAFKKTFSYAGFEMQPKKYHNPMIALLNVELELKAEKDNAEIRVHTVEDYQAIVDAEWNILYDKLEKIHHSGAKVVLSKLPIGDVATQYFADRDMFCAGRVPEEDLKRTMMACGGSIQTSVNALSSDVLGRCQVFEETQIGGERYNFFTGCPKAKTCTIILRGGAEQFMEETERSLHDAIMIVRRAIKNDSVVAGGGAIEMELSKYLRDYSRTIPGKQQLLIGAYAKALEIIPRQLCDNAGFDATNILNKLRARHAQGGMWYGVDINTEDIADNFEAFVWEPAMVRINALTAASEAACLIVSVDETIKNPRSTVDASPAAGRGRGRGRLH
binding result [1]: binds

B2: CCT2, subunit of bovine TRiC/CCT (bTRiC) (natural protein, Bos taurus, UniProt Q3ZBH0 1-535, looked up)
chain: MASLSLAPVNIFKAGADEERAETARLSSFIGAIAIGDLVKSTLGPKGMDKILLSSGRDASLMVTNDGATILKNIGVDNPAAKVLVDMSRVQDDEVGDGTTSVTVLAAELLREAESLIAKKIHPQTIIAGWREATKAARQALLNSAVDHGSDEVKFRQDLMNIAGTTLSSKLLTHHKDHFTKLAVEAVLRLKGSGNLEAIHVIKKLGGSLADSYLDEGFLLDKKIGVNQPKRIENAKILIANTGMDTDKIKIFGSRVRVDSTAKVAEIEHAEKEKMKEKVERILKHGINCFINRQLIYNYPEQLFGAAGVMAIEHADFVGVERLALVTGGEIASTFDHPELVKLGSCKLIEEVMIGEDKLIHFSGVALGEACTIVLRGATQQILDEAERSLHDALCVLAQTVKDSRTVYGGGCSEMLMAHAVTQLASRTPGKEAVAMESYAKALRMLPTIIADNAGYDSADLVAQLRAAHSEGKTTAGLDMKEGTIGDMSVLGITESFQVKRQVLLSAAEAAEVILRVDNIIKAAPRKRVPDHHPC
binding result [2]: binds

B3
binding result [3]: binds

B4: CCT3, subunit of bovine TRiC/CCT (bTRiC) (natural protein, Bos taurus, UniProt Q3T0K2 1-545, looked up)
chain: MMGHRPVLVLSQNTKRESGRKVQSGNINAAKTIADIIRTCLGPKSMMKMLLDPMGGIVMTNDGNAILREIQVQHPAAKSMIEISRTQDEEVGDGTTSVIILAGEMLSVAEHFLEQQMHPTVVISAYRKALDDMISTLKKISIPVDTSNRDTMLNIINSSITTKVISRWSSLACNIALDAVKTVQFEENGRKEIDIKKYARVEKIPGGIIEDSCVLRGVMINKDVTHPRMRRYIKNPRIVLLDSSLEYKKGESQTDIEITREEDFTRILQMEEEYIQQLCEDIIQLKPDVVITEKGISDLAQHYLMRANITAIRRVRKTDNNRIARACGARIVSRPEELREEDVGTGAGLLEIKKIGDEYFTFITECKDPKACTILLRGASKEILSEVERNLQDAMQVCRNVLLDPQLVPGGGASEMAVAHALTEKSKAMTGVEQWPYRAVAQALEVIPRTLIQNCGASTIRLLTSLRAKHTQENCETWGVNGETGTLVDMKELGIWEPLAVKLQTYKTAVETAVLLLRIDDIVSGHKKKGDDQSRQGGAPDAGQE
binding result [3]: binds

B5: CCT2, subunit of yeast TRiC/CCT (yTRiC) (natural protein, Saccharomyces cerevisiae, UniProt P39076 1-527, looked up)
chain: MSVQIFGDQVTEERAENARLSAFVGAIAVGDLVKSTLGPKGMDKLLQSASSNTCMVTNDGATILKSIPLDNPAAKVLVNISKVQDDEVGDGTTSVTVLSAELLREAEKLIDQSKIHPQTIIEGYRLASAAALDALTKAAVDNSHDKTMFREDLIHIAKTTLSSKILSQDKDHFAELATNAILRLKGSTNLEHIQIIKILGGKLSDSFLDEGFILAKKFGNNQPKRIENAKILIANTTLDTDKVKIFGTKFKVDSTAKLAQLEKAEREKMKNKIAKISKFGINTFINRQLIYDYPEQLFTDLGINSIEHADFEGVERLALVTGGEVVSTFDEPSKCKLGECDVIEEIMLGEQPFLKFSGCKAGEACTIVLRGATDQTLDEAERSLHDALSVLSQTTKETRTVLGGGCAEMVMSKAVDTEAQNIDGKKSLAVEAFARALRQLPTILADNAGFDSSELVSKLRSSIYNGISTSGLDLNNGTIADMRQLGIVESYKLKRAVVSSASEAAEVLLRVDNIIRARPRTANRQHM
binding result [4]: binds
